Data reported in the supplement of paper PMC9112550, “Optimization of the antimicrobial peptide Bac7 by deep mutational scanning” (BMC Biology, 2022).

These sequences were tested on Escherichia coli TOP10 (assay: shrunken log2 fold change of peptide-encoding DNA abundance (4.5 h post-induction vs induction); higher = less antimicrobial activity (less host growth inhibition)). Conditions: time post-induction: 4.5 h; library: site-saturation at positions 5, 18, 19, 20.
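Further: peptides expressed intracellularly from a pBAD plasmid library in pooled LB shake-flask culture, induced with 0.3% L-arabinose, DNA abundance read by NGS, three biological replicates, DESeq2 with apeglm shrinkage.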

| Sequence | shrunken log2 fold change |
| --- | --- |
| RRIRQRPPRLPRPRPRPYFYPRP | -0.652 |
| RRIRLRPPRLPRPRPRPVIGPRP | -0.173 |
| RRIRLRPPRLPRPRPRPRNAPRP | -0.0271 |
| RRIRERPPRLPRPRPRPPEFPRP | 0.127 |
| RRIRFRPPRLPRPRPRPCHGPRP | -1.45 |
| RRIRSRPPRLPRPRPRPAQMPRP | 0.437 |
| RRIRGRPPRLPRPRPRPEATPRP | 2.21 |
| RRIRWRPPRLPRPRPRPFIIPRP | -0.617 |
| RRIRTRPPRLPRPRPRPWHLPRP | -0.0134 |
| RRIRERPPRLPRPRPRPLCQPRP | 0.00385 |
| RRIRARPPRLPRPRPRPCYDPRP | -0.56 |
| RRIRWRPPRLPRPRPRPPRAPRP | 0.782 |
| RRIRIRPPRLPRPRPRPLDSPRP | -0.0212 |
| RRIRRRPPRLPRPRPRPDRKPRP | -0.145 |
| RRIRGRPPRLPRPRPRPIGYPRP | -0.017 |
| RRIRKRPPRLPRPRPRPYCGPRP | 0.0176 |
| RRIRLRPPRLPRPRPRPIGHPRP | -0.212 |
| RRIRWRPPRLPRPRPRPTPDPRP | 0.746 |
| RRIRNRPPRLPRPRPRPAFRPRP | 0.0513 |
| RRIRYRPPRLPRPRPRPVQHPRP | -0.247 |
| RRIRHRPPRLPRPRPRPQIFPRP | -0.135 |
| RRIRDRPPRLPRPRPRPCVGPRP | 0.97 |
| RRIRERPPRLPRPRPRPGVRPRP | 0.125 |
| RRIRARPPRLPRPRPRPDRRPRP | 0.086 |
| RRIRYRPPRLPRPRPRPAPYPRP | -0.557 |

| Sequence | shrunken log2 fold change |
| --- | --- |
| RRIRCRPPRLPRPRPRPDYSPRP | -0.179 |
| RRIRRRPPRLPRPRPRPIDHPRP | -0.12 |
| RRIRMRPPRLPRPRPRPSHYPRP | -0.201 |
| RRIRFRPPRLPRPRPRPICKPRP | -0.0703 |
| RRIRWRPPRLPRPRPRPNYNPRP | -0.752 |
| RRIRERPPRLPRPRPRPFTRPRP | -0.0106 |
| RRIRTRPPRLPRPRPRPGVKPRP | 0.14 |
| RRIRFRPPRLPRPRPRPYWDPRP | -2.48 |
| RRIRTRPPRLPRPRPRPDFRPRP | 0.0337 |
| RRIRQRPPRLPRPRPRPDFNPRP | -0.164 |
| RRIRFRPPRLPRPRPRPDGEPRP | 0.0232 |
| RRIRFRPPRLPRPRPRPCWGPRP | 0.00445 |
| RRIRSRPPRLPRPRPRPRKIPRP | 0.12 |
| RRIRERPPRLPRPRPRPYTIPRP | -0.267 |
| RRIRFRPPRLPRPRPRPIARPRP | 0.00909 |
| RRIRLRPPRLPRPRPRPMMRPRP | 0.196 |
| RRIRFRPPRLPRPRPRPPELPRP | 0.106 |
| RRIRTRPPRLPRPRPRPPRIPRP | 0.27 |
| RRIRCRPPRLPRPRPRPTNIPRP | -0.662 |
| RRIRRRPPRLPRPRPRPMPAPRP | 0.203 |
| RRIRTRPPRLPRPRPRPVYPPRP | -0.00118 |
| RRIRSRPPRLPRPRPRPGLLPRP | -0.0369 |
| RRIRDRPPRLPRPRPRPFLMPRP | -0.0685 |
| RRIRMRPPRLPRPRPRPNMSPRP | 0.0106 |
| RRIRQRPPRLPRPRPRPEAWPRP | 0.316 |

| Sequence | shrunken log2 fold change |
| --- | --- |
| RRIRPRPPRLPRPRPRPHWNPRP | -0.447 |
| RRIRCRPPRLPRPRPRPMHHPRP | -0.796 |
| RRIRHRPPRLPRPRPRPRWIPRP | -0.108 |
| RRIRARPPRLPRPRPRPVAEPRP | 0.871 |
| RRIRLRPPRLPRPRPRPVGWPRP | 0.671 |
| RRIRPRPPRLPRPRPRPYFYPRP | -0.787 |
| RRIRRRPPRLPRPRPRPAKKPRP | 1.04 |
| RRIRPRPPRLPRPRPRPAWWPRP | 0.259 |
| RRIRRRPPRLPRPRPRPRNTPRP | 0.436 |
| RRIRGRPPRLPRPRPRPLSPPRP | 0.435 |
| RRIRWRPPRLPRPRPRPMEFPRP | -0.145 |
| RRIRCRPPRLPRPRPRPGQMPRP | -0.147 |
| RRIRLRPPRLPRPRPRPNTPPRP | -0.187 |
| RRIRARPPRLPRPRPRPPTMPRP | 0.407 |
| RRIRLRPPRLPRPRPRPLAAPRP | 0.345 |
| RRIRRRPPRLPRPRPRPSEPPRP | 0.115 |
| RRIRSRPPRLPRPRPRPQPSPRP | 0.296 |
| RRIRWRPPRLPRPRPRPGAFPRP | 0.3 |
| RRIRLRPPRLPRPRPRPTKTPRP | -0.0526 |
| RRIRERPPRLPRPRPRPEYVPRP | -0.0151 |
| RRIRWRPPRLPRPRPRPAKMPRP | 0.519 |
| RRIRWRPPRLPRPRPRPMDGPRP | 0.309 |
| RRIRMRPPRLPRPRPRPSVNPRP | -0.0473 |
| RRIRGRPPRLPRPRPRPRPDPRP | 0.94 |
| RRIRERPPRLPRPRPRPWYIPRP | -0.0599 |

| Sequence | shrunken log2 fold change |
| --- | --- |
| RRIRTRPPRLPRPRPRPNWLPRP | 0.295 |
| RRIRHRPPRLPRPRPRPDPGPRP | -0.199 |
| RRIRIRPPRLPRPRPRPLVVPRP | -0.25 |
| RRIRDRPPRLPRPRPRPCYNPRP | -0.271 |
| RRIRDRPPRLPRPRPRPSIFPRP | -0.049 |
| RRIRSRPPRLPRPRPRPESPPRP | 0.32 |
| RRIRQRPPRLPRPRPRPESKPRP | 0.0494 |
| RRIRWRPPRLPRPRPRPIQNPRP | -0.394 |
| RRIRLRPPRLPRPRPRPALTPRP | 0.129 |
| RRIRMRPPRLPRPRPRPHFWPRP | 0.774 |
| RRIRHRPPRLPRPRPRPIVVPRP | 0.0062 |
| RRIRARPPRLPRPRPRPFDMPRP | 0.0608 |
| RRIRMRPPRLPRPRPRPLEMPRP | 1.4 |
| RRIRNRPPRLPRPRPRPSRLPRP | 0.14 |
| RRIRWRPPRLPRPRPRPANYPRP | -0.0848 |
| RRIRARPPRLPRPRPRPCIMPRP | -0.00141 |
| RRIRPRPPRLPRPRPRPSSCPRP | 0.0133 |
| RRIRHRPPRLPRPRPRPVMMPRP | -0.123 |
| RRIRLRPPRLPRPRPRPDNIPRP | -0.535 |
| RRIRDRPPRLPRPRPRPTAYPRP | -0.22 |
| RRIRHRPPRLPRPRPRPRPQPRP | 0.416 |
| RRIRIRPPRLPRPRPRPLISPRP | -0.127 |
| RRIRERPPRLPRPRPRPQLQPRP | -0.0648 |
| RRIRVRPPRLPRPRPRPGGHPRP | 0.13 |
| RRIRQRPPRLPRPRPRPTARPRP | 0.219 |

| Sequence | shrunken log2 fold change |
| --- | --- |
| RRIRVRPPRLPRPRPRPHEMPRP | -0.058 |
| RRIRFRPPRLPRPRPRPMFVPRP | 0.109 |
| RRIRFRPPRLPRPRPRPGNTPRP | -0.12 |
| RRIRMRPPRLPRPRPRPSEKPRP | 0.938 |
| RRIRLRPPRLPRPRPRPADCPRP | 0.142 |
| RRIRIRPPRLPRPRPRPVWAPRP | -0.0187 |
| RRIRNRPPRLPRPRPRPGMSPRP | -0.238 |
| RRIRQRPPRLPRPRPRPRPSPRP | 0.112 |
| RRIRDRPPRLPRPRPRPRKDPRP | -0.108 |
| RRIRMRPPRLPRPRPRPLGCPRP | 0.182 |
| RRIRERPPRLPRPRPRPQCEPRP | -0.0239 |
| RRIRKRPPRLPRPRPRPPWAPRP | 0.496 |
| RRIRDRPPRLPRPRPRPFTPPRP | -0.38 |
| RRIRRRPPRLPRPRPRPKFNPRP | 0.00967 |
| RRIRDRPPRLPRPRPRPQCHPRP | -0.0594 |
| RRIRWRPPRLPRPRPRPGAKPRP | 0.21 |
| RRIRGRPPRLPRPRPRPMFWPRP | 0.336 |
| RRIRTRPPRLPRPRPRPFNKPRP | 0.0555 |
| RRIRMRPPRLPRPRPRPRLIPRP | 0.0709 |
| RRIRQRPPRLPRPRPRPHAYPRP | -0.352 |
| RRIRSRPPRLPRPRPRPSWDPRP | 0.364 |
| RRIRVRPPRLPRPRPRPWYQPRP | -0.197 |
| RRIRLRPPRLPRPRPRPTVMPRP | 0.105 |
| RRIRSRPPRLPRPRPRPGICPRP | 0.137 |
| RRIRTRPPRLPRPRPRPCPAPRP | 0.115 |

| Sequence | shrunken log2 fold change |
| --- | --- |
| RRIRYRPPRLPRPRPRPKWYPRP | -0.884 |
| RRIRMRPPRLPRPRPRPYTGPRP | 0.042 |
| RRIRWRPPRLPRPRPRPHPIPRP | 0.062 |
| RRIRMRPPRLPRPRPRPRKHPRP | 0.826 |
| RRIRSRPPRLPRPRPRPPIHPRP | -0.329 |
| RRIRMRPPRLPRPRPRPRMDPRP | 0.356 |
| RRIRQRPPRLPRPRPRPYAQPRP | -0.214 |
| RRIRYRPPRLPRPRPRPMPRPRP | 0.0558 |
| RRIRKRPPRLPRPRPRPGYQPRP | 0.0954 |
| RRIRFRPPRLPRPRPRPNIFPRP | -0.229 |
| RRIRQRPPRLPRPRPRPHWHPRP | -0.465 |
| RRIRHRPPRLPRPRPRPRKYPRP | -0.556 |
| RRIRHRPPRLPRPRPRPWWGPRP | -0.0666 |
| RRIRLRPPRLPRPRPRPERGPRP | 0.538 |
| RRIRNRPPRLPRPRPRPRHMPRP | -0.199 |
| RRIRMRPPRLPRPRPRPFDRPRP | 0.00911 |
| RRIRIRPPRLPRPRPRPHVFPRP | 0.064 |
| RRIRVRPPRLPRPRPRPKPGPRP | 0.507 |
| RRIRFRPPRLPRPRPRPEHGPRP | 0.00151 |
| RRIRTRPPRLPRPRPRPRSNPRP | 0.186 |
| RRIRVRPPRLPRPRPRPQSMPRP | 0.229 |
| RRIRLRPPRLPRPRPRPYKFPRP | -0.447 |
| RRIRMRPPRLPRPRPRPDAPPRP | 3.16 |
| RRIRLRPPRLPRPRPRPLTSPRP | -0.179 |
| RRIRERPPRLPRPRPRPHDWPRP | -0.0393 |
